Measured values from patent publication US9823254B2, “Reversible chemoenzymatic labeling of native and fusion carrier protein motifs” (The Regents of the University of California, priority 2012, dated 2017).
Where “and” joins values, the source holds several entries; their conditions need not be identical. Identical values can stand only once.

Columns and labels:
YbbR13 = assay: AcpH activity with modified ybbR peptide, qualitative; assay type: biochemical; settings: coumarin-PPant labeled
A. orientalis CepK = assay: AcpH qualitative CP activity, gel-based, crypto-CP; assay type: biochemical; settings: NRPS; crypto-CP (coumarin-PPant), overnight, 37° C., 1 μM AcpH
P. aeruginosa AcpP = P. aeruginosa AcpP (Pseudomonas aeruginosa, UniProt O54439); settings: FAS; crypto-CP (coumarin-PPant), overnight, 37° C., 1 μM AcpH
Experimental: (§1) Unless otherwise noted, all coumarin-PPant labeling proceeded as follows: apo-carrier protein or peptide at 50-200 μM were labeled in 50 mM Na-HEPES pH 7.5, 10 mM MgCl2, 8 mM ATP, 0.1 μM MBP-CoaA/D/E, 0.1 μM native Sfp, and 1.1 equivalents of coumarin-pantetheine at 37° C. overnight. Crypto-protein samples were repurified using standard IMAC techniques in pH 8 lysis buffer with Ni-NTA resin, and spin-concentrated/buffer exchanged to remove imidazole and concentrate with 0.5 mL 3 kDa MWCO cellulose filters. Crypto-peptide samples were purified with HPLC, lyophilized, and redissolved in 50 mM TrisCl pH 8.0 prior to analysis.
(§2) Following AcpH treatment, an equal volume of 2×SDS-PAGE loading dye was added to crypto-carrier proteins samples and heated 5 min at 90° C., and run on 12% or 15% SDS-PAGE. Gels were fixed in 50/40/10% water/methanol/acetic acid for 30 minutes, and washed with water three times before UV imaging. Holo-carrier protein reactions were analyzed with Urea-PAGE as previously described.^6 All protein gels were Coomassie stained for evaluating total protein. Crypto-peptides were evaluated on Urea-PAGE, and were imaged immediately after running with no gel fixing.

E. coli AcpP = E. coli AcpP (Escherichia coli, UniProt P0A6A8); settings: FAS; crypto-CP (coumarin-PPant), overnight, 37° C., 1 μM AcpH
Experimental: as §1, §2

S. coelicolor ActACP = target: T1, S. coelicolor ActACP (Streptomyces coelicolor, UniProt Q02054); assay: AcpH qualitative CP activity, gel-based, crypto-CP; assay type: biochemical; settings: PKS; crypto-CP (coumarin-PPant), overnight, 37° C., 1 μM AcpH
T1 construct: made in house
T1 sequence (Q02054 whole entry, looked up): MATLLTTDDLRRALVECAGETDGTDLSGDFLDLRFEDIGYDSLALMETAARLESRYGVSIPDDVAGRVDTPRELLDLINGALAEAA

S. oneidensis AcpP = assay: AcpH qualitative CP activity, holo-SoAcpP, Urea-PAGE; assay type: biochemical; settings: FAS, Urea-PAGE gel-shift, shorter timescale
[1] = tested on: ACP fusion proteins (MBP, GFP, Lux-ACP); assay: AcpH label removal from rhodamine-labeled ACP fusion proteins; assay type: biochemical; settings: N-terminal MBP, C-terminal GFP, N-terminal luciferase (Lux-ACP) fusions
Experimental: Purified apo-MBP-PaACP at 200 μM was labeled with 1 mM rhodamine-CoA and 13 μM native Sfp in a reaction volume of 20 μL for 3 hours at 37° C. Purified apo-GFP-ACP at 150 μM was labeled with 1 mM rhodamine-CoA and 7 μM native Sfp in a reaction volume of 35 μL for 3 hours at 37° C. Purified apo-Lux-ACP at 12 μM was labeled with 50 μM rhodamine-CoA and 3 μM native Sfp for 1 hour at 37° C. Fusion ACPs were then re-purified from excess rhodamine-CoA and native Sfp using Ni-NTA resin, and buffer exchanged and concentrated using 10 kDa MWCO 0.5 mL Amicon spin filters (Millipore). Label removal of MBP-ACP and GFP-ACP proceeded with 4 μL of the concentrated crypto-fusion ACPs with 10 μM AcpH in 10 μL of AcpH reaction buffer for 3 hours at 37° C. 6 μM crypto-Lux-ACP was reacted with 5 μM AcpH for 3 hours at 37° C. AcpH reaction samples were run immediately afterwards on Urea-PAGE (MBP-ACP and GFP-ACP) or SDS-PAGE (Lux-ACP) with no further purification.

L majuscula JamF = assay: AcpH qualitative CP activity, gel-based, crypto-CP; assay type: biochemical; settings: PKS; crypto-CP (coumarin-PPant), overnight, 37° C., 1 μM AcpH
holo-ACP (E. coli) = holo-ACP (E. coli) (Escherichia coli, UniProt P0A6A8); settings: 37° C., HPLC detection, [AcpH] 1 (CyAcpH 0.005) μm
Experimental: Holo-E. coli AcpP was prepared as a serial dilution in 50 mM TrisCl, 250 mM NaCl, 30 mM MgCl2, and 2 mM MnCl2. […] CyAcpH was prepared at 10 nM in the same AcpH buffer. […] Reactions were transferred to prewarmed shaker at 37° C. and were quenched with 100 mM EDTA after 10 minutes. Samples were centrifuged and evaluated at 210 nm with HPLC using an acetonitrile gradient to determine apo-AcpP product formation. Michaelis-Menten kinetics were calculated using GraphPad Prism (GraphPad Software, La Jolla, Calif.).
E. coli holo-ACP was diluted into 50 mM TrisCl pH 8.0, 250 mM NaCl, 10% glycerol, 30 mM MgCl2 and 2 mM MnCl2 buffer to a concentration of 800 μM. […] AcpH was diluted from MOPS lysis buffer into 50 mM TrisCl pH 8.0, 250 mM NaCl, 10% glycerol and added to an equal volume of the holo-ACP serial dilution to initiate the reaction. Reaction tubes were transferred to a pre-warmed rack at 37° C. and shaken for the duration of the experiment. […] All samples were frozen at -80° C. until evaluated by HPLC.
Kinetics samples were mixed briefly with finger flicking, and centrifuged at 13000 rpm for 10 minutes at room temperature prior to transferring contents into HPLC vials. 20 μL of each reaction time point was injected on an Agilent 1100 series HPLC with column (Burdick & Jackson OD5 #9575, 25 cm×4.6 mm ID) using an acetonitrile/water gradient. Both water and acetonitrile contained 0.05% TFA. Method gradient for each injection: 0-5 min with 10% acetonitrile, 5-30 min with 10-100% acetonitrile, 30-35 min with 100% acetonitrile, 35-37 min with 100-10% acetonitrile, 37-40 min with 10% acetonitrile. HPLC-grade solvents (J. T. Baker, Phillipsburg, N.J.) were used exclusively. Apo- & holo-ACP protein standards were used to validate the retention times identified using 210 nm UV light at approximately 21 and 19 minutes, respectively. Peak integration was performed for all samples, and substrate turnover was calculated from the ratio of apo- to holo-ACP present in the HPLC trace and the known concentration of total ACP in reaction samples. Calculated rates for AcpH versus substrate concentration were obtained through Excel data analysis and graphed in Prism GraphPad using the “Michaelis-Menten” function for enzyme kinetics, with a zero data point added for substrate concentration of 0 μM*min-1 and 0 μM substrate for AcpH graphs.

M. tuberculosis MAS = assay: AcpH qualitative CP activity, gel-based, crypto-CP; assay type: biochemical; settings: FAS (FAS/PKS hybrid), overnight, 37° C., 1 μM AcpH
E. coli ACP (AcpP) = E. coli ACP (AcpP) (Escherichia coli, UniProt P0A6A8); settings: SDS-PAGE
Experimental: 50 mL LB media supplemented with 25 μM calcium D-pantothenate, 50 mM D-glucose, and 50 μg/mL kanamycin utilized previously. Media was inoculated with 1 mL of overnight DK554 starter culture and grown to OD=0.4. IPTG was added at a concentration of 1 mM to the media and was shaken for 5 hours at 37° C. Media was centrifuged at 4000 rpm at 4° C. for 30 minutes to pellet cells. Cell pellets were resuspended in 25 mM TrisCl pH 7.5, 250 mM NaCl, 0.1 mg/mL lysozyme, 10 μM pepstatin, 10 μM leupeptin and passed twice through a French pressure device at 1000 psi. Removal of coumarin-pantetheine from ACP in 5 mL lysate used 10 μM MBP-AcpH fusion in 600 mL AcpH reaction buffer (50 mM TrisCl, pH 8.0, 100 mM NaCl, 10% glycerol, 15 mM MgCl2, 1 mM MnCl2) within a 3 kDa MWCO dialysis bag at 37° C. overnight.
E. coli DK554 cell lysate with total protein concentration of approximately 2 mg/mL was added to the volume of premade 10×PPTase reaction buffer (500 mM Na-HEPES, 100 mM MgCl2, pH 7.4) that brought the total reaction concentration to 50 mM Na-HEPES pH 7.4, 10 mM MgCl2, 5 μM of coumarin-CoA, and 2 μM Sfp. […]

P. syringae SyrB1 = P. syringae SyrB1 (Pseudomonas syringae pv. syringae, UniProt Q52400); assay: AcpH qualitative CP activity, gel-based, crypto-CP; assay type: biochemical; settings: NRPS; crypto-CP (coumarin-PPant), overnight, 37° C., 1 μM AcpH
P. agglomerans AdmA = assay: AcpH qualitative CP activity, gel-based, crypto-CP; assay type: biochemical; settings: NRPS; crypto-CP (coumarin-PPant), overnight, 37° C., 1 μM AcpH
P. agglomerans AdmI = assay: AcpH qualitative CP activity, gel-based, crypto-CP; assay type: biochemical; settings: PKS; crypto-CP (coumarin-PPant), overnight, 37° C., 1 μM AcpH
P. fluorescens PltL = assay: AcpH qualitative CP activity, gel-based, crypto-CP; assay type: biochemical
M. tuberculosis AcpM = M. tuberculosis AcpM (Mycobacterium tuberculosis, UniProt P9WQF3); settings: FAS; crypto-CP (coumarin-PPant), overnight, 37° C., 1 μM AcpH
A. parasiticus PksA = target: T2, A. parasiticus PksA (Aspergillus parasiticus, UniProt Q12053); assay: AcpH qualitative CP activity, gel-based, crypto-CP; assay type: biochemical; settings: PKS; crypto-CP (coumarin-PPant), overnight, 37° C., 1 μM AcpH
T2 construct: made in house

P. falciparum ACP = assay: AcpH qualitative CP activity, gel-based, crypto-CP; assay type: biochemical; settings: FAS; crypto-CP (coumarin-PPant), overnight, 37° C., 1 μM AcpH
V. cholerae VibB = target: T3, V. cholerae VibB (Vibrio cholerae serotype O1, UniProt P0C6D3); settings: NRPS; crypto-CP (coumarin-PPant), overnight, 37° C., 1 μM AcpH
T3 sequence (P0C6D3 whole entry, looked up): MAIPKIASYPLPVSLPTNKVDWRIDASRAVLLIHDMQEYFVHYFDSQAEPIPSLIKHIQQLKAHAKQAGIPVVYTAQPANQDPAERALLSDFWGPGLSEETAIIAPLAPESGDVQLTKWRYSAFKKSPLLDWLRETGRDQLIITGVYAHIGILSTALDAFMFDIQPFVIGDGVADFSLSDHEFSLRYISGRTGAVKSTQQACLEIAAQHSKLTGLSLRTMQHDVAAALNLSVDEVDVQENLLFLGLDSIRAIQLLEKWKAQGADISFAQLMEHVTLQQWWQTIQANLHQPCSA

B1: PaAcpH: acyl carrier protein hydrolase (AcpH) from P. aeruginosa PAO1, NP13 253043.1 (protein)
chain: MNYLAHLHLGGPQPAQLLGSLYGDFVKGRLQGQWPDEIERAIQLHRRIDAFTDSHPLVHAAKRRFPLERRRFAGVLLDVFFDHCLARDWNDYADEPLPQFVERVYGTLRTASPLPERLARIAPRMAAQDWLGSYREFAVLREVLGGMSRRLSRPHLLDGSWEELAQRYDDLSADFRAFYPQLQAFALSQR
AcpH activity with modified ybbR peptide (YbbR13; YbbR13: N-term 6xHis, C-term GFP): no | AcpH activity with modified ybbR peptide (YbbR13; YbbR13: N-term FITC, C-term N/A): no | AcpH activity with modified ybbR peptide (YbbR13; YbbR13: N-term GFP, C-term 6xHis): no | AcpH activity with modified ybbR peptide (YbbR13; YbbR13 free peptide: N-term N/A, C-term N/A): no | AcpH qualitative CP activity (A. orientalis CepK): no | AcpH qualitative CP activity (P. aeruginosa AcpP): YES | AcpH qualitative CP activity (E. coli AcpP): YES | AcpH qualitative CP activity (S. coelicolor ActACP): no | AcpH qualitative CP activity (S. oneidensis AcpP): YES^† | removal of rhodamine-PPT from ACP fusion proteins [1]: removed rhodamine-PPT | AcpH qualitative CP activity (L majuscula JamF): no | Km (holo-ACP (E. coli)): 12 ± 2 µM | Vmax (holo-ACP (E. coli)): 0.59 ± 0.02 min⁻¹ | kcat (holo-ACP (E. coli)): 0.01 s⁻¹ and 0.00983 ± 0.00033 s⁻¹ | AcpH qualitative CP activity (M. tuberculosis MAS): no | removal of coumarin-PPT from ACP (E. coli ACP (AcpP); coumarin-labeled E. coli DK554 lysate, 254 nm): uniformly removed | removal of rhodamine label from ACP (E. coli ACP (AcpP); rhodamine-labeled ACP, 532 nm): can also be removed | AcpH qualitative CP activity (P. syringae SyrB1): no | AcpH qualitative CP activity (P. agglomerans AdmA): no | AcpH qualitative CP activity (P. agglomerans AdmI): no | AcpH activity with PltL (P. fluorescens PltL; NRPS-type PCP, crypto-PltL): partial activity | AcpH qualitative CP activity (P. fluorescens PltL; NRPS, crypto-CP (coumarin-PPant), overnight, 37° C., 1 μM AcpH): YES | AcpH qualitative CP activity (M. tuberculosis AcpM): YES | AcpH qualitative CP activity (A. parasiticus PksA): YES | AcpH qualitative CP activity (P. falciparum ACP): YES | AcpH qualitative CP activity (V. cholerae VibB): no
